From patent publication US8969060B2, “Modified glucose dehydrogenase” (Ikeda Food Research Co., Ltd., priority 2011, dated 2015)
Changes are numbered by the printed parent chain. Names and notes keep the numbering of the source.

B1: H341R: modified GLD: SEQ ID NO: 1 with substitution H341R (protein, listed as Aspergillus terreus)
chain: MLGKLSFLSALSLAVAAPLSNSTSAKYDYIVIGGGTSGLAVANRLSEDPNVNVLILEAGGSVWNNPNVTNVDGYGLAFGSDIDWQYQSVNQPYGGNLSQVLRAGKALGGTSTINGMAYTRAEDVQIDAWETIGNTGWTWKNLFPYYRKSENFTVPTKSQTSLGASYEAGAHGHEGPLDVAFTQIESNNLTTYLNRTFQGMGLPWTEDVNGGKMRGFNLYPSTVNLEEYVREDAARAYYWPYKSRPNLHVLLNTFANRIVWDGEAHDGHITASGVEITSRNGTVRVINAEKEVIVSAGALKSPAILELSGIGNPSVLDKHNIPVKVNLPTVGENLQDQVNSRMDASGNTSISGTKAVSYPDVYDVFGDEAESVAKQIRANLKQYAADTAKANGNIMKAADLERLFEVQYDLIFKGRVPIAEVLNYPGSATSVFAEFWALLPFARGSVHIGSSNPAEFPVINPNYFMLDWDAKSYVAVAKYIRRSFESYPLSSIVKESTPGYDVIPRNASEQSWKEWVFDKNYRSNFHPVGTAAMMPREIGGVVDERLNVYGTTNVRVVDASVLPFQVCGHLVSTLYAVAERAADLIKADAGRR
modifications: SIGNAL (1)..(19)
B2: D343M: modified GLD: SEQ ID NO: 1 with substitution D343M (protein, listed as Aspergillus terreus)
chain: B1 chain with R341H, D343M
modifications: SIGNAL (1)..(19)
B3: H341Y: modified GLD: SEQ ID NO: 1 with substitution H341Y (protein, listed as Aspergillus terreus)
chain: B1 chain with R341Y
modifications: SIGNAL (1)..(19)
B4: D343R: modified GLD: SEQ ID NO: 1 with substitution D343R (protein, listed as Aspergillus terreus)
chain: B1 chain with R341H, D343R
modifications: SIGNAL (1)..(19)
B5: G352F: modified GLD: SEQ ID NO: 1 with substitution G352F (protein, listed as Aspergillus terreus)
chain: B1 chain with R341H, G352F
modifications: SIGNAL (1)..(19)
B6: D343A: modified GLD: SEQ ID NO: 1 with substitution D343A (protein, listed as Aspergillus terreus)
chain: B1 chain with R341H, D343A
modifications: SIGNAL (1)..(19)
B7: D343F: modified GLD: SEQ ID NO: 1 with substitution D343F (protein, listed as Aspergillus terreus)
chain: B1 chain with R341H, D343F
modifications: SIGNAL (1)..(19)
B8: D343E: modified GLD: SEQ ID NO: 1 with substitution D343E (protein, listed as Aspergillus terreus)
chain: B1 chain with R341H, D343E
modifications: SIGNAL (1)..(19)
B9: A298V: modified GLD: SEQ ID NO: 1 with substitution A298V (protein, listed as Aspergillus terreus)
chain: B1 chain with A298V, R341H
modifications: SIGNAL (1)..(19)
B10: D343W: modified GLD: SEQ ID NO: 1 with substitution D343W (protein, listed as Aspergillus terreus)
chain: B1 chain with R341H, D343W
modifications: SIGNAL (1)..(19)
B11: H341S: modified GLD: SEQ ID NO: 1 with substitution H341S (protein, listed as Aspergillus terreus)
chain: B1 chain with R341S
modifications: SIGNAL (1)..(19)
B12: D343V: modified GLD: SEQ ID NO: 1 with substitution D343V (protein, listed as Aspergillus terreus)
chain: B1 chain with R341H, D343V
modifications: SIGNAL (1)..(19)
B13: D343Y: modified GLD: SEQ ID NO: 1 with substitution D343Y (protein, listed as Aspergillus terreus)
chain: B1 chain with R341H, D343Y
modifications: SIGNAL (1)..(19)
B14: V338M: modified GLD: SEQ ID NO: 1 with substitution V338M (protein, listed as Aspergillus terreus)
chain: B1 chain with V338M, R341H
modifications: SIGNAL (1)..(19)
B15: D343K: modified GLD: SEQ ID NO: 1 with substitution D343K (protein, listed as Aspergillus terreus)
chain: B1 chain with R341H, D343K
modifications: SIGNAL (1)..(19)
B16: A298I: modified GLD: SEQ ID NO: 1 with substitution A298I (protein, listed as Aspergillus terreus)
chain: B1 chain with A298I, R341H
modifications: SIGNAL (1)..(19)
B17: D343I: modified GLD: SEQ ID NO: 1 with substitution D343I (protein, listed as Aspergillus terreus)
chain: B1 chain with R341H, D343I
modifications: SIGNAL (1)..(19)
B18: D343S: modified GLD: SEQ ID NO: 1 with substitution D343S (protein, listed as Aspergillus terreus)
chain: B1 chain with R341H, D343S
modifications: SIGNAL (1)..(19)
B19: D343H: modified GLD: SEQ ID NO: 1 with substitution D343H (protein, listed as Aspergillus terreus)
chain: B1 chain with R341H, D343H
modifications: SIGNAL (1)..(19)
B20: H341V: modified GLD: SEQ ID NO: 1 with substitution H341V (protein, listed as Aspergillus terreus)
chain: B1 chain with R341V
modifications: SIGNAL (1)..(19)
B21: D343L: modified GLD: SEQ ID NO: 1 with substitution D343L (protein, listed as Aspergillus terreus)
chain: B1 chain with R341H, D343L
modifications: SIGNAL (1)..(19)
B22: D343Q: modified GLD: SEQ ID NO: 1 with substitution D343Q (protein, listed as Aspergillus terreus)
chain: B1 chain with R341H, D343Q
modifications: SIGNAL (1)..(19)

Legend:
[1] = Relative enzymatic activity of GLD (DCIP/1-m-PMS, plate reader, yeast culture supernatant) with 1,10-phenanthroline present; type: biochemical; details: site-specific mutants, inhibitor final concentration 1 mM
Experimental: (§1) The susceptibility defined in the present specification is evaluated in terms of a relative activity that is determined in a system wherein the inhibitor coexists or not. The relative activity is derived from a relative value (%) of an enzymatic activity (a sample value) obtained with the addition of the inhibitor in the determination of the enzymatic activity described in the present specification as compared with an enzymatic activity (a blank value) as “100%” obtained without the addition of the inhibitor in the same determination. Thus, the higher the relative activity is, the less the susceptibility to the inhibitor is (or the more the susceptibility to the inhibitor is reduced), vice versa.
(§2) The enzymatic activity is determined in the following manner in Examples 3 and 6 wherein a plate reader (Japan Molecular Device Corporation, SpectraMax Plus384) is used. Thus, culture supernatant that had been diluted in advance with an appropriate magnification is added to a 96-well microplate with an amount of 100 μl per well. A reagent for the determination of the enzymatic activity comprising phosphate buffer (pH 7.0), 1.0 M D-glucose, 3 mM DCIP, 3 mM 1-m-PMS and methanol with a volume ratio of 0.1:1:0.14:0.2:0.06 is added to the 96-well microplate with an amount of 100 μl per well, and a change in the absorbance of DCIP at 600 nm (ΔABS/min) is then determined. The enzymatic activity can be calculated by conversion in proportion to a change in the absorbance of an enzyme solution for which the enzymatic activity has already been known by the above-mentioned activity determination procedure using the spectrophotometer.
(§3) In the following examples, a value of the enzymatic activity determined by the spectrometer or plate reader using the above reagent composition is considered as a blank value. On the other hand, a sample value is determined using a methanol solution comprising the inhibitor such as 1,10-phenanthroline or proflavin hydrochloride at a final concentration of 1 mM instead of the methanol. Enzymatic activity (unit/mL)=(−ΔABS/16.3)×3.0/0.05×(Dilution ratio of enzyme) [Equation 1]
Into each well of a 96-well microplate (manufactured by Nunc, Inc.), a YPD medium containing 125 μL of 1.0% (w/v) yeast extract (manufactured by BD), 2.0% (w/v) tryptone (manufactured by BD), 2.0% (w/v) glucose (manufactured by Wako Pure Chemical Industries, Ltd.) was dispensed, and the transformant colonies obtained in Example 2 were inoculated thereinto one by one.
After shaking culture at 30° C. and 1,000 rpm for 24 hours, the culture mixture was centrifuged and the supernatant was collected.
According to the above-mentioned method for the determination of enzymatic activity, a blank value and a sample value were determined using a plate reader, and the relative activity (%) was obtained by dividing the sample value by the blank value.

[2] = Relative enzymatic activity of GLD (DCIP/1-m-PMS, plate reader, yeast culture supernatant) with proflavin hydrochloride present; type: biochemical; details: site-specific mutants, inhibitor final concentration 1 mM
Experimental: as §1, §2, §3

Molecule	Relative Activity [%] 1,10-Phenanthroline [1] [%]	Relative Activity [%] Proflavin hydrochloride [2] [%]
B1	78.6	69.5
B2	91.2	52.9
B3	93.6	77.8
B4	80.7	37.9
B5	83.8	56.9
B6	72.5	51.2
B7	95.3	65.7
B8	61.4	58.2
B9	62.2	51.2
B10	94.2	57.9
B11	90.4	76.6
B12	96.7	67.7
B13	96.2	55.6
B14	73.6	55.0
B15	95.9	51.8
B16	73.7	43.8
B17	88.6	71.5
B18	70.1	48.3
B19	87.5	62.8
B20	96.1	71.4
B21	100.5	73.2
B22	86.2	47.0
